Data reported in US20230114801A1 (SYSTIMMUNE, published 2023).
Values belong to the binder of their own block, whether it stands above or below them.

B1: human CD3 (receptor)
chain 1: DGNEEMGGITQTPYKVSISGTTVILTCPQYPGSEILWQHNDKNIGGDEDDKNIGSDEDHLSLKEFSELEQSGYYVCYPRGSKPEDANFYLYLRARVCENCMEMD
chain 2: FKIPIEELEDRVFVNCNTSITWVEGTVGTLLSDITRLDLGKRILDPRGIYRCNGTDIYKDKESTVQVHYRMCQSCVELDPATVA
notes: also called His-tagged human CD3; human CD3 (Acro CDD-H52W1)

Assays:
SI-49P9 = target: T1, SI-49P9; assay: BLI (Octet); conditions not stated
T1 construct: penta-miniGNC; D1 αCD3, D2 αCD19, D3 NKG2D receptor dimer, D4 41BBL, D5 αPD-L1
T1 sequence (chain, as listed by the source, chain 1 of 2): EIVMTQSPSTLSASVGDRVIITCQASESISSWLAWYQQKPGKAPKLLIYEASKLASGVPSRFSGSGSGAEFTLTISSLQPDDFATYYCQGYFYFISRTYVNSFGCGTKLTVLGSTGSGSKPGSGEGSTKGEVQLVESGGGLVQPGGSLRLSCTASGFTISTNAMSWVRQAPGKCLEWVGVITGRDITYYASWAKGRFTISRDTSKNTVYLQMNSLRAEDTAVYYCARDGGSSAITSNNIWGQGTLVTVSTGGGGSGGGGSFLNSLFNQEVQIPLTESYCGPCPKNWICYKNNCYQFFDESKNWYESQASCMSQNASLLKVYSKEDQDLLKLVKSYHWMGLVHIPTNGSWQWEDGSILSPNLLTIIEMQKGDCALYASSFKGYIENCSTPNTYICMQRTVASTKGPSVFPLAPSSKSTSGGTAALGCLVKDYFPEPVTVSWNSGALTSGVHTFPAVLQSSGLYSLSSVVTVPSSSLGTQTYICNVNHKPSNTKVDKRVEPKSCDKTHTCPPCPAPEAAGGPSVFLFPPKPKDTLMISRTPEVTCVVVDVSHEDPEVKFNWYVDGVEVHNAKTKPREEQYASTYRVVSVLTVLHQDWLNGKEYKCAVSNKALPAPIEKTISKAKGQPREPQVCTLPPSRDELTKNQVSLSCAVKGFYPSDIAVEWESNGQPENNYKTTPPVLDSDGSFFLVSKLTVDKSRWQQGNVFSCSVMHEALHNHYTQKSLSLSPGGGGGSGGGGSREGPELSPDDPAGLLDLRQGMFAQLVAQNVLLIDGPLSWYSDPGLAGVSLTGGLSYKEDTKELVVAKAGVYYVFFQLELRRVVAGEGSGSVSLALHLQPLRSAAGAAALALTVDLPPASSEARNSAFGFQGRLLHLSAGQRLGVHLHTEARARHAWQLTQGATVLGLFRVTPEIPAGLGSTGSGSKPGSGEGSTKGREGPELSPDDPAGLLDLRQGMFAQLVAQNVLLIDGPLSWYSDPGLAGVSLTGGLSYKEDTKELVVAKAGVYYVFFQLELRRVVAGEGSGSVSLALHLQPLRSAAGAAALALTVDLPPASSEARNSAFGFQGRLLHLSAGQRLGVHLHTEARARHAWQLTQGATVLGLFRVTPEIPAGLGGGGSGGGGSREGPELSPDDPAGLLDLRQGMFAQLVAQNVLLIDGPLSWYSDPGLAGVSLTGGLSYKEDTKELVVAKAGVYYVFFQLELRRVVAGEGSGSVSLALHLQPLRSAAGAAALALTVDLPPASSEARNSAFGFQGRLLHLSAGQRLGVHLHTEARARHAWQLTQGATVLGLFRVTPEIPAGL
T1 sequence (chain, as listed by the source, chain 2 of 2): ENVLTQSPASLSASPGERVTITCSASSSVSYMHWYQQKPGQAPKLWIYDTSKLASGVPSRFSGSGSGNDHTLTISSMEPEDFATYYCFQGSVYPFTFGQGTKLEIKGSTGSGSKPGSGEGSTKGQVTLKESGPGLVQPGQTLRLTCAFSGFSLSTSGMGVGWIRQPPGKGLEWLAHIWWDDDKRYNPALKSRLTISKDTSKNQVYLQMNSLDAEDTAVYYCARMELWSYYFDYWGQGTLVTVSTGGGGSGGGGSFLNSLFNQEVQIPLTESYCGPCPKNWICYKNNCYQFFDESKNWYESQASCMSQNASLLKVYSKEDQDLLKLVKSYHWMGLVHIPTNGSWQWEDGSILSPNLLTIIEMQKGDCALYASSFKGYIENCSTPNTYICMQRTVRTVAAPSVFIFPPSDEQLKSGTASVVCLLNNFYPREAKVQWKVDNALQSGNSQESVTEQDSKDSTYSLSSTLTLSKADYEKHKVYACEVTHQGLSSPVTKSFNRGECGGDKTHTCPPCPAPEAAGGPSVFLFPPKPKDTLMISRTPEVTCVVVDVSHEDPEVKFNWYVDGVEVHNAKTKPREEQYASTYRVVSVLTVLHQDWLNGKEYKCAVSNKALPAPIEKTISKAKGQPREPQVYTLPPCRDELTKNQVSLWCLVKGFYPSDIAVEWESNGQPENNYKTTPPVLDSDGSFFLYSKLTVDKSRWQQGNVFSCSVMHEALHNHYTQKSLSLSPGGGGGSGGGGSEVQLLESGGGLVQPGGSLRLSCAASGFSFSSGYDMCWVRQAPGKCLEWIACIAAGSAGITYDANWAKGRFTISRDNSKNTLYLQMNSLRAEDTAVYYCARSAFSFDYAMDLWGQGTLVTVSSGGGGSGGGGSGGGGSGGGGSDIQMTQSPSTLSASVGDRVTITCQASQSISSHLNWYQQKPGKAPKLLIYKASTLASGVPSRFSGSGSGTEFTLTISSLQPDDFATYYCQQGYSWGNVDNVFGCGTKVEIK

SI-75P4 = target: T2, SI-75P4; assay: BLI (Octet), binder on AHC sensor, 100 nM human antigen, 1:1 fit
T2 construct: penta-miniGNC; D1 αEGFR, D2 αHER3, D3 αCD3 (Fab), D4 41BBL (ligand of the 4-1BB receptor), D5 αPD-L1
T2 sequence (chain, as listed by the source): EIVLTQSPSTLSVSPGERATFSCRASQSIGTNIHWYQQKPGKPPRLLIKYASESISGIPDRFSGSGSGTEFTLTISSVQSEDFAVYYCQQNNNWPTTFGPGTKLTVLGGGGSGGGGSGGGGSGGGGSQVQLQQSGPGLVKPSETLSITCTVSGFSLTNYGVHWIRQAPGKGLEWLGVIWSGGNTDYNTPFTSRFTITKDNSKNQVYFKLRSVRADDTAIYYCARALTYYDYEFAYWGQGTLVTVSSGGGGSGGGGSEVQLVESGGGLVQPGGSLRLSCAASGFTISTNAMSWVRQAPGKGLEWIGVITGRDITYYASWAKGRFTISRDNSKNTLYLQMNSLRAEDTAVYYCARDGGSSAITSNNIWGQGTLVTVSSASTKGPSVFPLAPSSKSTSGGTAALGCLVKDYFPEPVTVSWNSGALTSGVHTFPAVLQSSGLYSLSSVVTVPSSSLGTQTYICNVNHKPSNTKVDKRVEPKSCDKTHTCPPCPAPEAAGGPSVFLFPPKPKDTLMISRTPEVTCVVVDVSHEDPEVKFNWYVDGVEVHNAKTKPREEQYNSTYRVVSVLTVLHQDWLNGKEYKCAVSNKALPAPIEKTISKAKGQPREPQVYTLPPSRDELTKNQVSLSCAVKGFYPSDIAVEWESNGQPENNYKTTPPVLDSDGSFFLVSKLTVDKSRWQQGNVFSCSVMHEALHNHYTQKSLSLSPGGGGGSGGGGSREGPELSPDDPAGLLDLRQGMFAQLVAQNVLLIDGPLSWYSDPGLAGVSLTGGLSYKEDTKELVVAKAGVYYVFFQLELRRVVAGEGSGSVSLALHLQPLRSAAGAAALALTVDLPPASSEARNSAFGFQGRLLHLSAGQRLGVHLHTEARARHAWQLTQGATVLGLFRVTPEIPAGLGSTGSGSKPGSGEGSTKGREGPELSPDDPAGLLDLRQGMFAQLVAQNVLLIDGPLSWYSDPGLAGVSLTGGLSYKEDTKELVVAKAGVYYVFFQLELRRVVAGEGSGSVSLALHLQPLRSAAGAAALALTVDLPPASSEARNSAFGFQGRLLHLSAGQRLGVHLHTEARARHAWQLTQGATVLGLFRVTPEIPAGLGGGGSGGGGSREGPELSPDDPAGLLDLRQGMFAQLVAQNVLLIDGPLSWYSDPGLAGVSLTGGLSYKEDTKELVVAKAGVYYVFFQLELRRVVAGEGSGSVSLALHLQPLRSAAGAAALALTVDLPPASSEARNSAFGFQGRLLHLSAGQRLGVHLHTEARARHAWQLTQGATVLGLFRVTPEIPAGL

NKG2D ligand = assay: BLI (Octet); conditions and ligand not stated
CD19 = target: T3, CD19 (UniProt P15391 20-291, limits assumed); assay: BLI (Octet); conditions not stated
T3 sequence (looked up): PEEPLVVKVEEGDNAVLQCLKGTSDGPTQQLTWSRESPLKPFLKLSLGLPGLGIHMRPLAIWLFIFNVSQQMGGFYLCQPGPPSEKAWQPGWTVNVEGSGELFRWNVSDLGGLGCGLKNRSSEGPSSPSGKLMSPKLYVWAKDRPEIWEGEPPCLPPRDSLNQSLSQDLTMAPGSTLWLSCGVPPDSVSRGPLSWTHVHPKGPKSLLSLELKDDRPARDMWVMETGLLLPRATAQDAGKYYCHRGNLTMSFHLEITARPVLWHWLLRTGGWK

human CD3 [1] = target: B1; assay: BLI (Octet); conditions not stated
human 4-1BB [2] = target: T4, human 4-1BB (human, UniProt Q07011 24-186, limits assumed); assay: BLI (Octet); conditions not stated
T4 construct: Soluble antigen in Octet; construct not described

human PD-L1 [3] = target: T5, human PD-L1 (human, UniProt Q9NZQ7 19-238); assay: BLI (Octet); conditions not stated
T5 construct: Soluble antigen in Octet; bought; also called human PD-L1 (Acro PD1-H5229)

human 4-1BB [4] = target: T4, human 4-1BB; assay: BLI (Octet), binder on AHC sensor, 400 nM human 4-1BB, 1:1 fit
human CD3 [5] = target: B1; assay: BLI (Octet), binder on AHC sensor, 100 nM human CD3, 1:1 fit
human EGFR = target: T6, human EGFR (human, UniProt P00533 25-645, limits assumed); assay: BLI (Octet), binder on AHC sensor, 200 nM human EGFR, 1:1 fit
T6 construct: Soluble antigen in Octet; construct not described

human PD-L1 [6] = target: T5, human PD-L1; assay: BLI (Octet), binder on AHC sensor, 20 nM human PD-L1, 1:1 fit

Binder: B1
Kd (SI-49P9): 0.0298 µM
Kd (SI-75P4): 0.0227 µM

Kd (NKG2D ligand): 0.0245 µM
Kd (CD19): 0.0055 µM
Kd (human CD3 [1]): 0.0302 µM
Kd (human 4-1BB [2]): 0.00274 µM
Kd (human PD-L1 [3]): 0.00223 µM
B2: SI-49PM1 (other)
chain 1: FLNSLFNQEVQIPLTESYCGPCPKNWICYKNNCYQFFDESKNWYESQASCMSQNASLLKVYSKEDQDLLKLVKSYHWMGLVHIPTNGSWQWEDGSILSPNLLTIIEMQKGDCALYASSFKGYIENCSTPNTYICMQRTVGGGGSGGGGSGGGGSGGGGSFLNSLFNQEVQIPLTESYCGPCPKNWICYKNNCYQFFDESKNWYESQASCMSQNASLLKVYSKEDQDLLKLVKSYHWMGLVHIPTNGSWQWEDGSILSPNLLTIIEMQKGDCALYASSFKGYIENCSTPNTYICMQRTVVDGGGGSGGGGSEVQLVESGGGLVQPGGSLRLSCAASGFTISTNAMSWVRQAPGKGLEWIGVITGRDITYYASWAKGRFTISRDNSKNTLYLQMNSLRAEDTAVYYCARDGGSSAITSNNIWGQGTLVTVSSASTKGPSVFPLAPSSKSTSGGTAALGCLVKDYFPEPVTVSWNSGALTSGVHTFPAVLQSSGLYSLSSVVTVPSSSLGTQTYICNVNHKPSNTKVDKRVEPKSCDKTHTCPPCPAPEAAGGPSVFLFPPKPKDTLMISRTPEVTCVVVDVSHEDPEVKFNWYVDGVEVHNAKTKPREEQYASTYRVVSVLTVLHQDWLNGKEYKCAVSNKALPAPIEKTISKAKGQPREPQVCTLPPSRDELTKNQVSLSCAVKGFYPSDIAVEWESNGQPENNYKTTPPVLDSDGSFFLVSKLTVDKSRWQQGNVFSCSVMHEALHNHYTQKSLSLSPGGGGGSGGGGSRSLVESGGGLVQPGGSLRLSCTASGFTISSYHMQWVRQAPGKCLEYIGTISSGGNVYYASSARGRFTISRPSSKNTVDLQMNSLRAEDTAVYYCARDSGYSDPMWGQGTLVTVSSGGGGSGGGGSGGGGSGGGGSDVVMTQSPSSVSASVGDRVTITCQASQNIRTYLSWYQQKPGKAPKLLIYAAANLASGVPSRFSGSGSGTDFTLTISDLEPGDAATYYCQSTYLGTDYVGGAFGCGTKVEIK
chain 2: ENVLTQSPASLSASPGERVTITCSASSSVSYMHWYQQKPGQAPKLWIYDTSKLASGVPSRFSGSGSGNDHTLTISSMEPEDFATYYCFQGSVYPFTFGQGTKVTVLGGGGSGGGGSGGGGSGGGGSQVTLKESGPGLVQPGQTLSLTCAFSGFSLSTSGMGVGWIRQPPGKGLEWLAHIWWDDDKRYNPALKSRLTISKDTSKNQVYLQMNSLDAEDTAVYYCARMELWSYYFDYWGQGTLVTVSSGGGGSGGGGSDVVMTQSPSTLSASVGDRVTINCQASESISSWLAWYQQKPGKAPKLLIYEASKLASGVPSRFSGSGSGTEFTLTISSLQPDDFATYYCQGYFYFISRTYVNSFGGGTKVEIKRTVAAPSVFIFPPSDEQLKSGTASVVCLLNNFYPREAKVQWKVDNALQSGNSQESVTEQDSKDSTYSLSSTLTLSKADYEKHKVYACEVTHQGLSSPVTKSFNRGECGGDKTHTCPPCPAPEAAGGPSVFLFPPKPKDTLMISRTPEVTCVVVDVSHEDPEVKFNWYVDGVEVHNAKTKPREEQYNSTYRVVSVLTVLHQDWLNGKEYKCAVSNKALPAPIEKTISKAKGQPREPQVYTLPPSRDELTKNQVSLWCLVKGFYPSDIAVEWESNGQPENNYKTTPPVLDSDGSFFLYSKLTVDKSRWQQGNVFSCSVMHEALHNRFTQKSLSLSPGGGGGSGGGGSDIQMTQSPSTLSASVGDRVTITCQASQSISSHLNWYQQKPGKAPKLLIYKASTLASGVPSRFSGSGSGTEFTLTISSLQPDDFATYYCQQGYSWGNVDNVFGGGTKVTVLGGGGSGGGGSGGGGSGGGGSEVQLLESGGGLVQPGGSLSLSCAASGFSFSSGYDMCWVRQAPGKGLEWIACIAAGSAGITYDANWAKGRFTISRDNSKNTLYLQMNSLRAEDTAVYYCARSAFSFDYAMDLWGQGTLVTVSS
notes: control penta-miniGNC; D1 NKG2D (tandem dimer), D2 αCD19, D3 αCD3 (Fab), D4 α4-1BB, D5 αPD-L1

Kd (human 4-1BB [4]): 0.0233 µM
Kd (human CD3 [5]): 0.0261 µM
Kd (human EGFR): 0.0235 µM
Kd (human PD-L1 [6]): 0.00325 µM
B3: SI-75P5 (other)
chain 1: EVQLQESGGGLVQAGDSLSLSCLVSGRSFNSYTMGWFRQAPGKEREFVAAILWSGPTTYYADSVKGRFTISRDNAKNTVYLQMNSLKPEDTAVYYCAAALGVLVLAPGNVYSYWGQGTQVTVSSGGGGSGGGGSEVQLVESGGGLVQPGGSLRLSCAASGFTISTNAMSWVRQAPGKGLEWIGVITGRDITYYASWAKGRFTISRDNSKNTLYLQMNSLRAEDTAVYYCARDGGSSAITSNNIWGQGTLVTVSSASTKGPSVFPLAPSSKSTSGGTAALGCLVKDYFPEPVTVSWNSGALTSGVHTFPAVLQSSGLYSLSSVVTVPSSSLGTQTYICNVNHKPSNTKVDKRVEPKSCDKTHTCPPCPAPEAAGGPSVFLFPPKPKDTLMISRTPEVTCVVVDVSHEDPEVKFNWYVDGVEVHNAKTKPREEQYNSTYRVVSVLTVLHQDWLNGKEYKCAVSNKALPAPIEKTISKAKGQPREPQVYTLPPSRDELTKNQVSLSCAVKGFYPSDIAVEWESNGQPENNYKTTPPVLDSDGSFFLVSKLTVDKSRWQQGNVFSCSVMHEALHNHYTQKSLSLSPGGGGGSGGGGSDVVMTQSPSSVSASVGDRVTITCQASQNIRTYLSWYQQKPGKAPKLLIYAAANLASGVPSRFSGSGSGTDFTLTISDLEPGDAATYYCQSTYLGTDYVGGAFGGGTKLTVLGGGGSGGGGSGGGGSGGGGSEVQLVESGGGLVQPGGSLRLSCTASGFTISSYHMQWVRQAPGKGLEYIGTISSGGNVYYASSARGRFTISRPSSKNTVDLQMNSLRAEDTAVYYCARDSGYSDPMWGQGTLVTVSS
chain 2: QVQLVQSGGGLVQAGGSLSLSCAFSGRTFSMYTMGWFRQAPGKEREFVAANRGRGLSPDIADSVNGRFTISRDNAKNTLYLQMDSLKPEDTAVYYCAADLQYGSSWPQRSSAEYDYWGQGTTVTVSSGGGGSGGGGSDVVMTQSPSTLSASVGDRVTINCQASESISSWLAWYQQKPGKAPKLLIYEASKLASGVPSRFSGSGSGTEFTLTISSLQPDDFATYYCQGYFYFISRTYVNSFGGGTKVEIKRTVAAPSVFIFPPSDEQLKSGTASVVCLLNNFYPREAKVQWKVDNALQSGNSQESVTEQDSKDSTYSLSSTLTLSKADYEKHKVYACEVTHQGLSSPVTKSFNRGECGGDKTHTCPPCPAPEAAGGPSVFLFPPKPKDTLMISRTPEVTCVVVDVSHEDPEVKFNWYVDGVEVHNAKTKPREEQYNSTYRVVSVLTVLHQDWLNGKEYKCAVSNKALPAPIEKTISKAKGQPREPQVYTLPPSRDELTKNQVSLWCLVKGFYPSDIAVEWESNGQPENNYKTTPPVLDSDGSFFLYSKLTVDKSRWQQGNVFSCSVMHEALHNRFTQKSLSLSPGGGGGSGGGGSDIQMTQSPSTLSASVGDRVTITCQASQSISSHLNWYQQKPGKAPKLLIYKASTLASGVPSRFSGSGSGTEFTLTISSLQPDDFATYYCQQGYSWGNVDNVFGGGTKVTVLGGGGSGGGGSGGGGSGGGGSEVQLLESGGGLVQPGGSLSLSCAASGFSFSSGYDMCWVRQAPGKGLEWIACIAAGSAGITYDANWAKGRFTISRDNSKNTLYLQMNSLRAEDTAVYYCARSAFSFDYAMDLWGQGTLVTVSS
notes: penta-miniGNC; D1 αEGFR VHH, D2 αHER3 VHH, D3 αCD3 (Fab), D4 α4-1BB, D5 αPD-L1
